Results: patent US20210300999A1

Target: SARS-CoV-2 prefusion-stabilized trimeric spike ectodomain (S2Pecto) (SARS-CoV-2) (UniProt P0DTC2)
Test: ELISA on coated antigen

“rCR3022 (recombinant form of the cross-reactive SARS-CoV SRBD mAb CR3022) (antibody)” showed an EC50 of 0.0102 µg/mL.
